Measurements from patent publication WO2011147762A2.

Key:
[1] = biological target: ED-B fibronectin antigen protein (recombinant), bound to CNBr activated sepharose 4B (UniProt P02751); test: ED-B sepharose column, % of total radioactivity bound; Study A; inositol 50 mg/mL; day 7
[2] = biological target: ED-B fibronectin antigen protein (recombinant), bound to CNBr activated sepharose 4B (UniProt P02751); test: ED-B sepharose column, % of total radioactivity bound; Study B3; ascorbic acid 25 mg/mL; day 5
[3] = biological target: ED-B fibronectin antigen protein (recombinant), bound to CNBr activated sepharose 4B (UniProt P02751); test: ED-B sepharose column, % of total radioactivity bound; Study A; trolox 5 mg/mL; day 7

Sequence of 131I L19-SIP (radioiodinated L19 SIP homodimer) (chain): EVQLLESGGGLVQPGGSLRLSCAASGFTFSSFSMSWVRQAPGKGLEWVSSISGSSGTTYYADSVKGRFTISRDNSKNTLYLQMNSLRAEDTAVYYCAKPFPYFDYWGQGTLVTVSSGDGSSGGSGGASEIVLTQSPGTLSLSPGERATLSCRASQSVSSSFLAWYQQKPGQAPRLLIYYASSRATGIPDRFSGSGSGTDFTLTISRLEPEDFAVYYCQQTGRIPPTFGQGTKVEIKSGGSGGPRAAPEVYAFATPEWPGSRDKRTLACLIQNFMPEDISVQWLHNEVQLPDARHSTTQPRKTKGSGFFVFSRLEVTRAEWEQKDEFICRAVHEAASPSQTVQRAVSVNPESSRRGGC
Sequence of 131I L19-SIP (radioiodinated L19 SIP homodimer) (chain): as above
Sequence of UniProt P02751 (P02751 1266-1356 limits assumed): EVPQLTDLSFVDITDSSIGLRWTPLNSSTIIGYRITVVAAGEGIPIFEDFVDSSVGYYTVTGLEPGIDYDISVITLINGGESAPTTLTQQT

## 131I L19-SIP (radioiodinated L19 SIP homodimer)
[1]
  Immunoreactivity (%): 61.9%
[2]
  Immunoreactivity (IR) (%): 64.7%
[3]
  Immunoreactivity (%): 52.9%
